Laboratory results taken from article PMC12661054, “The CIP2A-TOPBP1 axis facilitates mitotic DNA repair via MiDAS and MMEJ” (Nature Communications, 2025).
Square brackets hold non-standard residues; d marks the D form. Ends that are not written are not given here. fluorescein = fluorescein label on the N-terminus; pT = C[C@@H](OP(=O)(O)O)[C@H](N)C(=O)O

Target: T1, GST-TOPBP1(BRCT0-2 1-290) K250E (human, UniProt Q92547 1-290, K250E)
T1 construct: TOPBP1, human, residues 1-290 (BRCT0-2); purified as the wild type; no cleavage of GST described; also called BRCT 2 (K250E); source: E. coli BL21(DE3), purified (HiTrap GST, Superdex 200)
Assay: fluorescence polarisation; 100 nM fluorescein-labelled SLX4 peptide, increasing concentrations of TOPBP1 BRCT fragment; room temperature; 25 mM HEPES pH 7.5, 150 mM NaCl, 1 mM EDTA, 0.25 mM TCEP, 0.002% Tween 20; single site with non-specific component
Conditions: both partners purified

B1: Flu-SLX4_pT1260 (peptide)
peptide: fluorescein-GYGTSWLVPA[pT]PLASRSR
modifications: also: phosphothreonine at Thr1260 (position 4 or 11)
notes: residues before the SLX4 stretch, not SLX4; SLX4, human, amino acids 1253-1267, pT1260; also called fluorescein tagged SLX4 pT1260-containing peptide; pThr1260 SLX4 peptide; source: synthetic peptide
B1: binds.
